We go through two molecules from PMC7442622, “A functionally neutral single chain antibody to measure beta‐1 integrin uptake and recycling” (Traffic (Copenhagen, Denmark), 2020).

In the assay the target is T1, β1 integrin (Homo sapiens, UniProt P05556).
T1 construct: β1 integrin (integrin beta-1), endogenous on the surface of H1975 and hTERT-RPE1 cells; On cells β1 integrin stands in αβ heterodimers; also called beta‐1 integrin; endogenous β1 integrin; source: endogenous, on H1975 cells; endogenous, on hTERT‐RPE1 cells
Put plainly: ELISA; cell-based ELISA binding isotherm on H1975 cells seeded on gelatin- and fibronectin-coated 96-well plates; antibody dilutions in PBS4+ (1 mM MgCl2, 1 mM CaCl2, 5 mM glucose, 1% BSA), 30 minutes at 4°C; KD as the concentration at half-maximal binding; n = 4. As to conditions: one partner purified.

T1 sequence (P05556 21-798): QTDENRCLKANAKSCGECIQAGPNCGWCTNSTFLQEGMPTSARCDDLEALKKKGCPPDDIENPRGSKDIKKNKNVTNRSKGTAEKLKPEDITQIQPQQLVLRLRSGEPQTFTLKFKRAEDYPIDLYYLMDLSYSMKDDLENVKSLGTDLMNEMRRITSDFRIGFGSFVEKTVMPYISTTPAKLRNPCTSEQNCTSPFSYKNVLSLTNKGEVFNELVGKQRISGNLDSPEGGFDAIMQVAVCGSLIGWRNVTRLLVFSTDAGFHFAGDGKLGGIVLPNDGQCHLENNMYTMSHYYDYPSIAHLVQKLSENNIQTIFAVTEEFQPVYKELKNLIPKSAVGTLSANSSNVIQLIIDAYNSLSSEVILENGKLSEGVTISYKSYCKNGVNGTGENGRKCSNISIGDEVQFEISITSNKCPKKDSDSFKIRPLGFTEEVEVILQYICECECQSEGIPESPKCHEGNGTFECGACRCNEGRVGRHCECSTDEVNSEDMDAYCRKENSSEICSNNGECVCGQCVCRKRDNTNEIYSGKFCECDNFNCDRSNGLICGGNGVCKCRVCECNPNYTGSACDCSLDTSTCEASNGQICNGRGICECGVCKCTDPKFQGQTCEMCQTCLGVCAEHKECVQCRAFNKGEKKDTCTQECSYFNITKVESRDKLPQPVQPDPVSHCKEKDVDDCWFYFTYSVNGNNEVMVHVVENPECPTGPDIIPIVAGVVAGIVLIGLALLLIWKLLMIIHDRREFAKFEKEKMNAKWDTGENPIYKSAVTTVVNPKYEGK

B1: MBP‐scFv^K20 (scFv, V domains shown)
VH: QVQLQESGTELVRPGASVKLSCKASGYTFTDYYISWVKQRPGQGLEWIARIYPGSGNTFYNEKFKGKATLTAETSSNTAYMQLSSLTSEDSAVYFCAIYYGSGDYWGQGTTVTVSS
VL: DIQLTQSPSSLSASLGGKVTITCKASQDINKYIAWYQHEPGKGPRLLIRYTSKLESGIPSRFSGSGSGRDYSFSISNLEPEDIATYYCLQYYNLWTFGGGTKLEIK
notes: VH of mouse mAb K20; flexible linker, 3x repeat of GGGGS; VL of mouse mAb K20; 71 kDa fusion; a TEV site lies between MBP and the scFv; monovalent; also called MBP‐fused scFv^K20; anti‐β1 integrin scFv^K20; source: High Five insect cells, baculovirus, secreted; purified (IMAC, SEC peak 2); also as culture media containing secreted scFv^K20; not shown: His6, N-terminal, kept; MBP, N-terminal, …
Turning to B1, the dissociation constant (Kd) (as a rule, a measure of binding affinity in units of concentration) amounted to 6.54 ± 1.34 nM.

B2: mouse monoclonal anti‐β1 integrin antibody mAb K20 (antibody, V domains shown)
VH: QVQLQESGTELVRPGASVKLSCKASGYTFTDYYISWVKQRPGQGLEWIARIYPGSGNTFYNEKFKGKATLTAETSSNTAYMQLSSLTSEDSAVYFCAIYYGSGDYWGQGTTVTVSS
VL: DIQLTQSPSSLSASLGGKVTITCKASQDINKYIAWYQHEPGKGPRLLIRYTSKLESGIPSRFSGSGSGRDYSFSISNLEPEDIATYYCLQYYNLWTFGGGTKLEIK
notes: VH of mAb K20; constant region of the heavy chain of a mouse IgG; VL of mAb K20; constant region of the light chain of a mouse antibody; Bivalent IgG; also called mAb K20 IgG; parent mAb K20; source: bought: Beckman Coulter; copies: 2 + 2
Molecule B2 yielded a Kd of 1.2 ± 0.14 nM.
